Results from article PMC10847778.

Key:
[1] = target: oleate hydratase (OhyA), recombinant full-length, His-tagged (Staphylococcus aureus); experiment: cryo-EM single-particle images (no structure solved); grids of OhyA prepared in the absence of detergent
[2] = target: oleate hydratase (OhyA), recombinant full-length, His-tagged (Staphylococcus aureus); experiment: mass photometry; OneMP mass photometer; final concentration 100 nM protein; dilute, equilibrium conditions
[3] = target: oleate hydratase (OhyA), recombinant full-length, His-tagged (Staphylococcus aureus); experiment: SEC-MALS; Superose 6 Increase 10/300 GL; 20 mM Tris, 200 mM NaCl, pH 7.6; 25 °C; protein at 2 mg/ml, 100 μl injected
[4] = target: OhyA lacking helices α19 and α20 (OhyA(ΔHTH)), His-tagged (Staphylococcus aureus); experiment: mass photometry; OneMP mass photometer; final concentration 100 nM protein; dilute, equilibrium conditions
[5] = target: OhyA lacking helices α19 and α20 (OhyA(ΔHTH)), His-tagged (Staphylococcus aureus); experiment: SEC-MALS; Superose 6 Increase 10/300 GL; 20 mM Tris, 200 mM NaCl, pH 7.6; 25 °C; protein at 2 mg/ml, 100 μl injected

Substance	stoichiometry N [1]	percent dimer [2] [%]	stoichiometry N [2]	percent dimer [3] [%]	stoichiometry N [3]	percent dimer [4] [%]	percent monomer [4] [%]	percent dimer [5] [%]	stoichiometry N [5]
oleate hydratase (OhyA), recombinant full-length, His-tagged (enzyme)	4	86	2	84.6	2	–	–	–	–
OhyA lacking helices α19 and α20 (OhyA(ΔHTH)), His-tagged (domain or fragment)	–	–	–	–	–	20	75	89.8	2
